Consider two molecules from patent US20060110730A1, “Methods and compositions for regulation and manipulation of steroidogenesis” (priority 2002, published 2006).

One test deals with COS-1 cells. In words: Pregnenolone production of COS-1 cells co-transfected with F2 (cholesterol side-chain cleavage fusion) and StAR constructs. The test is classed as cell-based, monkey. The settings on record: for increase in steroidogenesis over the StAR-independent level seen with F2 alone: accumulated pregnenolone after 48 h; for steroidogenic activity (in words): pregnenolone in medium. On the procedure: COS-1 cells were grown, transfected and assayed for pregnenolone production as Described (Stocco, D. M. & Clark, B. J. Regulation of the acute production of steroids in steroidogenic cells. Endocr. Rev. 17, 221-244 (1996)), (Bose, H. S., et al. N-218 MLN64, a protein with StAR-like steroidogenic activity is folded and cleaved similarly to StAR. Biochemistry 39, 11722-11731 (2000)). Three independent transfections, each performed in triplicate, were done for each construct.
To determine the location of biological activity of the mitochondrial protein StAR, wild-type and StAR proteins with an N-terminal deletion and StAR proteins fused to a protein that would function to immobilize the StAR protein in one of the four mitochondrial compartments were evaluated for their ability to catalyze steroidogenesis. Nonsteroidogenic COS-I monkey kidney cells were grown, transfected and assayed for pregnenolone production as described (Stocco, D. M. and Clark, B. J., Endocr Rev 17, 221-244 (1996); Bose, H. S., et al., Biochemistry 39, 11722-11731 (2000)). Three independent transfections, each performed in triplicate, were done for each construct. The cells were transfected with a vector expressing full length StAR or a vector expressing N-62 StAR, Tom-StAR, StAR-Tom, Tim44-StAR, or Tim9-StAR. Tom20, Tim9 and Tim44 cDNAs were prepared from human adrenal RNA by RT-PCR. N-62 StAR cDNA including an enterokinase linker fused to 63-285 StAR was derived from a bacterial expression vector (see Artemenko, et al., J. Biol. Chem. 276: 46583-46596 (2001). Tom/StAR is Tom20 fused to 63-285 through GSDDDDK, which contains Bam HI and enterokinase sites (Bam/EK linker). StAR/Tom is 1-285 StAR fused to Tom20 through Eco RI/EK linker (GFDDDDK). Tim9/StAR contains the 25 amino acid mitochondrial leader of cytochrome c oxidase subunit IV (Bose et al, Biochemistry, 37: 9768-9775 (1998)) fused to Tim9 linked to N-30 StAR through the Bam/EK linker. Tim44/StAR is Tim44 fused to 63-285 StAR through the Bam/EK linker. Tom20 has 50 amino-terminal residues embedded in the OMM and 95 residues in the cytoplasm (Abe, Y., et al., Cell 100, 551-560 (2000)). Expression of Tom20 with N-62 StAR fused to its carboxy-terminus (Tom/StAR) affixed StAR to the cytoplasmic side of the OMM. Expression of Tim9, which is normally confined to the IMS (Bauer et al, J. Inher. Metab. Dis. 24: 166-180 (2001)), fused to N-30 StAR (Tim9/StAR) localized StAR to the IMS. Expression of Tim44, which lies on the matrix side of the IMM, fused to N-62 StAR (Tim44/StAR), targeted StAR to the matrix. […]

For the next test, the system named is MA-10 cell mitochondria. Nature of the test: Mitochondrial import and cleavage kinetics of StAR constructs. The test is classed as biochemical, mouse. Conditions: 26° C., phosphorimager quantitation of uncleaved and cleaved imported protein. An excerpt: StAR constructs were cloned into the BglII/EcoRI site of pSP6, transcribed with SP6 RNA polymerase (Promega) and translated with [35S]methionine as described (Chuck, S. & Lingappa, V. Apolipoprotein B intermediates. Nature 356, 115-116 (1992)). Mitochondria, isolated from 5 £ 106 MA-10 or COS-1 cells by hypotonic shock and homogenization (Bose, H. S., et al. N-218 MLN64, a protein with StAR-like steroidogenic activity is folded and cleaved similarly to StAR. Biochemistry 39, 11722-11731 (2000)) were suspended in […] of 125 mM sucrose, 1 mM ATP, 1 mM NADH, 50 mM KCl, 0.05 mM ADP, 2 mM DTT, 5 mM Na-succinate, 2 mM Mg(OAc)2, 2 mM KH2PO4 and 10 mM HEPES buffer at pH 7.4. Mitochondria (50 ml) and 1 ml of the transcription/translationmix were incubated at 268 C. for various times; import was terminated with 1 ml 1 mM mCCCP (Calbiochem). Some mitochondria were extracted with fresh 100 mM Na2CO3, pH 11.5, for 15 min at 48 C. and spun at 15,000 g for 15 min at 48 C. to pellet membranes. Some membranes were incubated with 0.1% digitonin (Sigma) for 15 min at 48 C. and spun at 144,000 g for 1 h at 48 C. to pelletOMMfragments. […] Analysis was by SDS-polyacrylamide gel electrophoresis (SDS-PAGE) and phosphorimager quantification (Molecular Dynamics, Storm 860). […]

The next test has as its system MA-10 mitochondria. Nature of the test: Steroidogenic activity (pregnenolone) of isolated MA-10 mitochondria incubated with StAR constructs from cell-free transcription/translation. It is filed as biochemical, mouse. On the procedure:
(§1) StAR constructs were bioassayed (Bose, H. S., et al. N-218 MLN64, a protein with StAR-like steroidogenic activity is folded and cleaved similarly to StAR. Biochemistry 39, 11722-11731 (2000)) with MA-10 mitochondria. Linked transcription/translation system was added directly to the mitochondria except when Tim9/StAR was immunoprecipitated with anti-StAR antiserum (Bose, H. S., et al. The active form of the steroidogenic acute regulatory protein, StAR, appears to be a molten globule. Proc. Natl Acad. Sci. USA 96, 7250-7255 (1999)), collected with protein A-sepharose CL-4B (Pharmacia), washed, dissociated from the sepharose-antibody complex at pH 3.0, neutralized and added directly to mitochondria. Immunoassays of pregnenolone were performed after incubation at 378 C. for 1 h; immunoblotting was performed as described (Bose, H. S., et al. N-218 MLN64, a protein with StAR-like steroidogenic activity is folded and cleaved similarly to StAR. Biochemistry 39, 11722-11731 (2000)).
as §1, with “al.,” for “al. N-218 MLN64, a protein with StAR-like steroidogenic activity is folded and cleaved similarly to StAR.”, “al., Proc” for “al. The active form of the steroidogenic acute regulatory protein, StAR, appears to be a molten globule. Proc.”, “Acad Sci” for “Acad. Sci.”, “harvested” for “collected”, “37°” for “378 C.”

`CC(C)CC[C@@H](O)[C@@H](C)[C@H]1CC[C@H]2[C@@H]3CC=C4C[C@@H](O)CC[C@]4(C)[C@H]3CC[C@]12C` [22R-OH-cholesterol, 22R-hydroxycholesterol, reference compound]: the “increase in steroidogenesis over the StAR-independent level seen with F2 alone” value with COS-1 cells was roughly 20 fold.

B1: full-length StAR: full-length (1-285) steroidogenic acute regulatory protein (protein, UniProt P49675 1-285, looked up)
chain: MLLATFKLCAGSSYRHMRNMKGLRQQAVMAISQELNRRALGGPTPSTWINQVRRRSSLLGSRLEETLYSDQELAYLQQGEEAMQKALGILSNQEGWKKESQQDNGDKVMSKVVPDVGKVFRLEVVVDQPMERLYEELVERMEAMGEWNPNVKEIKVLQKIGKDTFITHELAAEAAGNLVGPRDFVSVRCAKRRGSTCVLAGMATDFGNMPEQKGVIRAEHGPTCMVLHPLAGSPSKTKLTWLLSIDLKGWLPKSIINQVLSQTQVDFANHLRKRLESHPASEARC
modifications: full-length
notes: full-length (1-285) steroidogenic acute regulatory protein
On to B1, for which, in the test on COS-1 cells, the “increase in steroidogenesis over the StAR-independent level seen with F2 alone” value is recorded as 6 fold. Further, the “steroidogenic activity (in words)” value with COS-1 cells was “equivalent at all times measured after transfection”; in the test on COS-1 cells (listed as full-length (1-285) StAR), “about half the maximal capacity of the cells”. In the test on MA-10 cell mitochondria, the “import speed (ranking)” value is “Scc/N-62 StAR>>Scc/N-30 StAR>full-length StAR”. In the test with MA-10 mitochondria (MA-10 mitochondria incubated with cell-free transcription/translation system expressing the construct, versus control system), this molecule displayed an increase in steroidogenesis of roughly 6 fold. For the same molecule, in the test on MA-10 mitochondria (equal amounts of each protein added, 1 h), the “activity of MA-10 cell mitochondria (in words)” value is on record as “equally active”. In the test on MA-10 mitochondria (mitochondria reconstituted from OMM and mitoplast fractions), the “steroidogenic activity of reconstituted mitochondria (in words)” value was “active”.
